Results: IntAct's records for PubMed 31515488

B1: Keratin, type I cytoskeletal 18 (Homo sapiens), P05783 (parent)
chain: MSFTTRSTFSTNYRSLGSVQAPSYGARPVSSAASVYAGAGGSGSRISVSRSTSFRGGMGSGGLATGIAGGLAGMGGIQNEKETMQSLNDRLASYLDRVRSLETENRRLESKIREHLEKKGPQVRDWSHYFKIIEDLRAQIFANTVDNARIVLQIDNARLAADDFRVKYETELAMRQSVENDIHGLRKVIDDTNITRLQLETEIEALKEELLFMKKNHEEEVKGLQAQIASSGLTVEVDAPKSQDLAKIMADIRAQYDELARKNREELDKYWSQQIEESTTVVTTQSAEVGAAETTLTELRRTVQSLEIDLDSMRNLKASLENSLREVEARYALQMEQLNGILLHLESELAQTRAEGQRQAQEYEALLNIKVKLEAEIATYRRLLEDGEDFNLGDALDSSNSMQTIQKTTTRRIVDGKVVSETNDTKVLRH
partner: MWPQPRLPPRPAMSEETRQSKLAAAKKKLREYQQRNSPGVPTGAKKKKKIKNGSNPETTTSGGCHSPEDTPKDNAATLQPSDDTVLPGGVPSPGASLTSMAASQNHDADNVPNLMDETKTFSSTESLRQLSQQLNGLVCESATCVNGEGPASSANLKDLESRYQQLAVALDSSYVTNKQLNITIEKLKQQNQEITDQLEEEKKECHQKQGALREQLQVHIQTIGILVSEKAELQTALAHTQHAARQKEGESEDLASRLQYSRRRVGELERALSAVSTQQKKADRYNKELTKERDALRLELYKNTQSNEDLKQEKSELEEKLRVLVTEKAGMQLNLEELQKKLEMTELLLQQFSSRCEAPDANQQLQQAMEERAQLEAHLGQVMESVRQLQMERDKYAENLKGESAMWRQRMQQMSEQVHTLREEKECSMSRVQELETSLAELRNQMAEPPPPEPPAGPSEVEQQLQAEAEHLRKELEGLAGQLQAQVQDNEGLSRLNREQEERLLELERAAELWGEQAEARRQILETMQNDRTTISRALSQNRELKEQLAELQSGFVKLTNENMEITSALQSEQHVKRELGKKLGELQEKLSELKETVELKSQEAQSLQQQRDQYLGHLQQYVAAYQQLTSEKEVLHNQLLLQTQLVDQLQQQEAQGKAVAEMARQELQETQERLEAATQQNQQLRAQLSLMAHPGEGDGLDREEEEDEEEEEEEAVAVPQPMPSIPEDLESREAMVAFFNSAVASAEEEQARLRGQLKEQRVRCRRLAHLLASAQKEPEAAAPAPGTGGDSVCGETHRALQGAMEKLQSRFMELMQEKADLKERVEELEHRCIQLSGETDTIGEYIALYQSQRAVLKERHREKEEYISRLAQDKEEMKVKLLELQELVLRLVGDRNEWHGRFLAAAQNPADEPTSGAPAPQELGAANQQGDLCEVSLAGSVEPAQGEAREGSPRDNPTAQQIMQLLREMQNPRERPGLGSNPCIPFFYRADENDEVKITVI
B2: Cyclic AMP-dependent transcription factor ATF-4 (Homo sapiens), P18848 (parent)
chain: MTEMSFLSSEVLVGDLMSPFDQSGLGAEESLGLLDDYLEVAKHFKPHGFSSDKAKAGSSEWLAVDGLVSPSNNSKEDAFSGTDWMLEKMDLKEFDLDALLGIDDLETMPDDLLTTLDDTCDLFAPLVQETNKQPPQTVNPIGHLPESLTKPDQVAPFTFLQPLPLSPGVLSSTPDHSFSLELGSEVDITEGDRKPDYTAYVAMIPQCIKEEDTPSDNDSGICMSPESYLGSPQHSPSTRGSPNRSLPSPGVLCGSARPKPYDPPGEKMVAAKVKGEKLDKKLKKMEQNKTAATRYRQKKRAEQEALTGECKELEKKNEALKERADSLAKEIQYLKDLIEEVRKARGKKRVP
B3: Ras and Rab interactor 1 (Homo sapiens), Q13671 (parent)
chain: MESPGESGAGSPGAPSPSSFTTGHLAREKPAQDPLYDVPNASGGQAGGPQRPGRVVSLRERLLLTRPVWLQLQANAAAALHMLRTEPPGTFLVRKSNTRQCQALCMRLPEASGPSFVSSHYILESPGGVSLEGSELMFPDLVQLICAYCHTRDILLLPLQLPRAIHHAATHKELEAISHLGIEFWSSSLNIKAQRGPAGGPVLPQLKARSPQELDQGTGAALCFFNPLFPGDLGPTKREKFKRSFKVRVSTETSSPLSPPAVPPPPVPVLPGAVPSQTERLPPCQLLRRESSVGYRVPAGSGPSLPPMPSLQEVDCGSPSSSEEEGVPGSRGSPATSPHLGRRRPLLRSMSAAFCSLLAPERQVGRAAAALMQDRHTAAGQLVQDLLTQVRAGPEPQELQGIRQALSRARAMLSAELGPEKLLSPKRLEHVLEKSLHCSVLKPLRPILAARLRRRLAADGSLGRLAEGLRLARAQGPGAFGSHLSLPSPVELEQVRQKLLQLLRTYSPSAQVKRLLQACKLLYMALRTQEGEGAGADEFLPLLSLVLAHCDLPELLLEAEYMSELLEPSLLTGEGGYYLTSLSASLALLSGLGQAHTLPLSPVQELRRSLSLWEQRRLPATHCFQHLLRVAYQDPSSGCTSKTLAVPPEASIATLNQLCATKFRVTQPNTFGLFLYKEQGYHRLPPGALAHRLPTTGYLVYRRAEWPETQGAVTEEEGSGQSEARSRGEEQGCQGDGDAGVKASPRDIREQSETTAEGGQGQAQEGPAQPGEPEAEGSRAAEE
partner: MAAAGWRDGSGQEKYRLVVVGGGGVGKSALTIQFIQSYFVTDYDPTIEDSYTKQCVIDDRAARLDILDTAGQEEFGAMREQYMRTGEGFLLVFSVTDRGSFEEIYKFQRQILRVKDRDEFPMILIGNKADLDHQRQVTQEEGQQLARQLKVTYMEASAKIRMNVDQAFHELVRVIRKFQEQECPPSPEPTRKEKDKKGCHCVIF
B4: UPF0488 protein C8orf33 (Homo sapiens), Q9H7E9 (parent)
chain: MAALGHLAGEAAAAPGPGTPCASRGARLPGPVSSARNPSTVCLCPEQPTCSNADSRAHPLGDEGGTASKKQKNKKKTRNRASVANGGEKASEKLAPEEVPLSAEAQAQQLAQELAWCVEQLELGLKRQKPTPKQKEQAIGAIRTLRSKRTPLPRKRQLMHSLFGDYRAQMEAEWREALRALRAAAYSAQVQPVDGATRKKSQRVCRPRSIWRAKATLDMPDEEFRFNFF
B5: Zinc finger protein 774 (Homo sapiens), Q6NX45 (parent)
chain: MWLGTSGKSGLPGHCLENPLQECHPAQLEEWALKGISRPSVISQPEQKEEPWVLPLQNFEARKIPRESHTDCEHQVAKLNQDNSETAEQCGTSSERTNKDLSHTLSWGGNWEQGLELEGQHGTLPGEGQLESFSQERDLNKLLDGYVGEKPMCAECGKSFNQSSYLIRHLRTHTGERPYTCIECGKGFKQSSDLVTHRRTHTGEKPYQCKGCEKKFSDSSTLIKHQRTHTGERPYECPECGKTFGRKPHLIMHQRTHTGEKPYACLECHKSFSRSSNFITHQRTHTGVKPYRCNDCGESFSQSSDLIKHQRTHTGERPFKCPECGKGFRDSSHFVAHMSTHSGERPFSCPDCHKSFSQSSHLVTHQRTHTGERPFKCENCGKGFADSSALIKHQRIHTGERPYKCGECGKSFNQSSHFITHQRIHLGDRPYRCPECGKTFNQRSHFLTHQRTHTGEKPFHCSKCNKSFRQKAHLLCHQNTHLI
partner: B1 partner
B6: Keratin, type I cytoskeletal 13 (Homo sapiens), P13646 (parent)
chain: MSLRLQSSSASYGGGFGGGSCQLGGGRGVSTCSTRFVSGGSAGGYGGGVSCGFGGGAGSGFGGGYGGGLGGGYGGGLGGGFGGGFAGGFVDFGACDGGLLTGNEKITMQNLNDRLASYLEKVRALEEANADLEVKIRDWHLKQSPASPERDYSPYYKTIEELRDKILTATIENNRVILEIDNARLAADDFRLKYENELALRQSVEADINGLRRVLDELTLSKTDLEMQIESLNEELAYMKKNHEEEMKEFSNQVVGQVNVEMDATPGIDLTRVLAEMREQYEAMAERNRRDAEEWFHTKSAELNKEVSTNTAMIQTSKTEITELRRTLQGLEIELQSQLSMKAGLENTVAETECRYALQLQQIQGLISSIEAQLSELRSEMECQNQEYKMLLDIKTRLEQEIATYRSLLEGQDAKMIGFPSSAGSVSPRSTSVTTTSSASVTTTSNASGRRTSDVRRP

Variants of: B1
Details: with goga2_human GOLGA2, Q08379

| Variant | effect of a mutation on the interaction |
| --- | --- |
| S230T | with no effect |
| R158H | with no effect |

Variants of: B2
Details: with ldoc1_human LDOC1, O95751
Target sequence in this assay (O95751 whole entry): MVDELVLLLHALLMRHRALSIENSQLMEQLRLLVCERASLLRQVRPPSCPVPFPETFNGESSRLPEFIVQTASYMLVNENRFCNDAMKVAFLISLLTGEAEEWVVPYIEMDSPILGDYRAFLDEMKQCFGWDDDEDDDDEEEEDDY

| Variant | effect of a mutation on the interaction |
| --- | --- |
| T137S | with no effect |
| P258A | with no effect |

The next lines start with the values.

| effect of a mutation on the interaction | Variant |
| --- | --- |
| with no effect | A324V |
| disrupting interaction strength | E322D |

Variants of: B2
Details: with cc106_human CCDC106, Q9BWC9
Chain of cc106_human CCDC106, Q9BWC9 (Q9BWC9 whole entry): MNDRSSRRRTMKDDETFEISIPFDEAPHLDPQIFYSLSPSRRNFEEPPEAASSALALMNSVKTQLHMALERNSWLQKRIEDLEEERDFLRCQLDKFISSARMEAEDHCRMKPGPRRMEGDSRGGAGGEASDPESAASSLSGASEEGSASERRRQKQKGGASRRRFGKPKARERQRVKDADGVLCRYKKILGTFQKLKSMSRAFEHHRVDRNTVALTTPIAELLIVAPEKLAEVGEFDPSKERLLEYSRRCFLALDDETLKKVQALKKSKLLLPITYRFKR

| Variant | effect of a mutation on the interaction |
| --- | --- |
| A324V | with no effect |
| E322D | disrupting interaction strength |
| P258A | with no effect |

Variants of: B2
Details: with fbw1a_human BTRC

| Variant | effect of a mutation on the interaction |
| --- | --- |
| T137S | with no effect |
| P258A | with no effect |

Further lines, results first:

| effect of a mutation on the interaction | Variant |
| --- | --- |
| with no effect | A324V |
| disrupting interaction strength | E322D |

Variants of: B2
Details: with cc106_human CCDC106, Q9BWC9
Remark: another data set of the same source

| Variant | effect of a mutation on the interaction |
| --- | --- |
| A324V | disrupting interaction strength |

Variants of: B2
Details: with tthy_human TTR

| Variant | effect of a mutation on the interaction |
| --- | --- |
| T137S | with no effect |

Variants of: B3
Details: with rras2_human RRAS2, P62070

| Variant | effect of a mutation on the interaction |
| --- | --- |
| R238Q | with no effect |

Variants of: B4
Details: with ldoc1_human LDOC1, O95751
Target sequence in this assay (O95751 whole entry): as the sequence (O95751 whole entry) above

| Variant | effect of a mutation on the interaction |
| --- | --- |
| G25R | with no effect |

Variants of: B4
Details: with cep70_human CEP70, Q8NHQ1
Chain of cep70_human CEP70, Q8NHQ1 (Q8NHQ1 whole entry): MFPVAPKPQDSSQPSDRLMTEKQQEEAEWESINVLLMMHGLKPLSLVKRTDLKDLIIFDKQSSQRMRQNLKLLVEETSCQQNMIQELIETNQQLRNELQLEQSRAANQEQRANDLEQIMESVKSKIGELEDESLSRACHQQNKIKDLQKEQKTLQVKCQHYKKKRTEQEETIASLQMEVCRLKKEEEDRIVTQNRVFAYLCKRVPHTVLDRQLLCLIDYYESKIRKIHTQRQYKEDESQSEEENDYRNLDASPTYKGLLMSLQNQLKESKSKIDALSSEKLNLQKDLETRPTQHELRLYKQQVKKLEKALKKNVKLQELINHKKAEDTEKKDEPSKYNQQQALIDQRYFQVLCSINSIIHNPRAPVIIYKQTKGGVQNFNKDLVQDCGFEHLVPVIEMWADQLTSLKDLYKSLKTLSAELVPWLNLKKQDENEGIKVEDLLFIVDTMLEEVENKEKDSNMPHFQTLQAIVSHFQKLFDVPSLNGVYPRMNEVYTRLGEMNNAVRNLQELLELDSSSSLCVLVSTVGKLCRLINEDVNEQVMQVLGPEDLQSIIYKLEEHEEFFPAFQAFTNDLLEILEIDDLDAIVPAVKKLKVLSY

| Variant | effect of a mutation on the interaction |
| --- | --- |
| G25R | with no effect |

Variants of: B5
Details: with goga2_human GOLGA2, Q08379

| Variant | effect of a mutation on the interaction |
| --- | --- |
| P65L | with no effect |

Variants of: B6
Details: with k22e_human KRT2, P35908
Chain of k22e_human KRT2, P35908 (P35908 whole entry): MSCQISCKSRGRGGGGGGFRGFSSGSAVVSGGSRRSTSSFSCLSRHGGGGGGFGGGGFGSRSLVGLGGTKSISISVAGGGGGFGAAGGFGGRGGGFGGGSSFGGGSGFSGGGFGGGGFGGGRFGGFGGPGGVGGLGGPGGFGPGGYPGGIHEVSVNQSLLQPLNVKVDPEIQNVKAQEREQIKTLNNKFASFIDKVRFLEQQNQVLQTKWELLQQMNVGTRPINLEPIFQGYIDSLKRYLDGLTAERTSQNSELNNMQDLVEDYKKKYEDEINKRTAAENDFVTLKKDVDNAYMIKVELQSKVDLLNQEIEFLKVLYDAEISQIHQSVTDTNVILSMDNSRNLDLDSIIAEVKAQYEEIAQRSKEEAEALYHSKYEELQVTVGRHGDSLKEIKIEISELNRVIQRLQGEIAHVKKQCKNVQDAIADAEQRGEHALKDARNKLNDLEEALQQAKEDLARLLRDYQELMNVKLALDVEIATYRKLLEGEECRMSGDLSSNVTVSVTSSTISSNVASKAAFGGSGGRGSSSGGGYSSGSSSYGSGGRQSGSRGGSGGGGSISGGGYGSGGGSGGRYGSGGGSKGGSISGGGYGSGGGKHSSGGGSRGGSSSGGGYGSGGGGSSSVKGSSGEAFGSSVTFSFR

| Variant | effect of a mutation on the interaction |
| --- | --- |
| R355H | with no effect |

Variants of: B6
Details: with k2c4_human KRT4, P19013
Chain of k2c4_human KRT4, P19013 (P19013 whole entry): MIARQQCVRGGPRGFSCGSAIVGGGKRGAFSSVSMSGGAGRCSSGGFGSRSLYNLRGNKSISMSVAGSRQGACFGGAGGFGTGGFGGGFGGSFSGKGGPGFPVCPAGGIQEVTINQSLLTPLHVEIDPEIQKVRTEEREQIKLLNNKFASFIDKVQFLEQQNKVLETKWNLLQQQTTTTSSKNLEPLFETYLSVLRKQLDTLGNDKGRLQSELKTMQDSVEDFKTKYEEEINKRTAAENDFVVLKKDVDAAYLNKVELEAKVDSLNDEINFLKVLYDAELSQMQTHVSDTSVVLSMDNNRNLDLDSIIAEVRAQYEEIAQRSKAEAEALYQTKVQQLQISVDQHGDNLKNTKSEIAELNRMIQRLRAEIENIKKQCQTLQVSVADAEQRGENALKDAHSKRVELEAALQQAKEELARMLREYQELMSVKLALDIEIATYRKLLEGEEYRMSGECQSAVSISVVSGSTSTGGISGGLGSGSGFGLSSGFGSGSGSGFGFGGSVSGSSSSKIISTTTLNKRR

| Variant | effect of a mutation on the interaction |
| --- | --- |
| R355H | with no effect |

Variants of: B6
Details: with KRT6A

| Variant | effect of a mutation on the interaction |
| --- | --- |
| R355H | with no effect |

Variants of: B6
Details: with ccnc_human CCNC

| Variant | effect of a mutation on the interaction |
| --- | --- |
| R355H | with no effect |
